Results: the supplement of paper PMC5998384

Assays:
HeLa Kyoto [1] = assay: thermal stability score vs G1/S (z-score of summed log2 fold changes over temperatures); higher = more thermally stable than in G1/S
HeLa Kyoto [2] = assay: melting temperature (median over replicates), in situ; higher = more thermally stable
HeLa Kyoto [3] = assay: solubility in G1/S (NP-40 vs SDS abundance) (log2 ratio); higher = more soluble; details: cell cycle stage: G1/S
HeLa Kyoto [4] = assay: solubility change mitosis vs G1/S (difference of NP-40 vs SDS log2 ratios) (log2 ratio difference); higher = more soluble in mitosis
[5] = cell cycle stage: early G1 (4.5 h after nocodazole release)
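Wherever melting temperature (median over replicates), in situ is given: HeLa Kyoto cells synchronized by double thymidine or nocodazole block, proteins quantified by TMT10plex mass spectrometry, three independent biological replicates.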
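Wherever solubility change mitosis vs G1/S (difference of NP-40 vs SDS log2 ratios) is given: synchronized HeLa Kyoto cells (double thymidine block for G1/S, nocodazole release for mitosis), protein amounts in NP-40 versus SDS lysates quantified by mass spectrometry, three biological replicates.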
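Wherever solubility in G1/S (NP-40 vs SDS abundance) is given: HeLa Kyoto cells arrested at G1/S by double thymidine block, proteins quantified by TMT10plex mass spectrometry in mild NP-40 versus SDS extracts, three biological replicates.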
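Wherever thermal stability score vs G1/S (z-score of summed log2 fold changes over temperatures) is given: synchronized HeLa Kyoto cells, proteins quantified by TMT10plex mass spectrometry, three biological replicates, mitosis taken 0.5 h after nocodazole release, G1/S directly after double thymidine block.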

Sequence | thermal stability score (HeLa Kyoto [1]; [5]) | thermal stability score (HeLa Kyoto [1]; cell cycle stage: mitosis) | melting temperature (HeLa Kyoto [2]; cell cycle stage: G1/S) [°C] | melting temperature (HeLa Kyoto [2]; cell cycle stage: mitosis) [°C] | solubility in G1/S (log2) (HeLa Kyoto [3]) | solubility change mitosis (log2) (HeLa Kyoto [4])
METPAAAAPAGSLFPSFLLLACGTLVAALLGAAHRLGLFYQLLHKVDKASVRHGGENVAAVLRAHGVRFIFTLVGGHISPLLVACEKLGIRVVDTRHEVTAVFAADAMARLSGTVGVAAVTAGPGLTNTVTAVKNAQMAQSPILLLGGAASTLLQNRGALQAVDQLSLFRPLCKFCVSVRRVRDIVPTLRAAMAAAQSGTPGPVFVELPVDVLYPYFMVQKEMVPAKPPKGLVGRVVSWYLENYLANLFAGAWEPQPEGPLPLDIPQASPQQVQRCVEILSRAKRPLMVLGSQALLTPTSADKLRAAVETLGVPCFLGGMARGLLGRNHPLHIRENRSAALKKADVIVLAGTVCDFRLSYGRVLSHSSKIIIVNRNREEMLLNSDIFWKPQEAVQGDVGSFVLKLVEGLQGQTWAPDWVEELREADRQKEQTFREKAAMPVAQHLNPVQVLQLVEETLPDNSILVVDGGDFVGTAAHLVQPRGPLRWLDPGAFGTLGVGAGFALGAKLCRPDAEVWCLFGDGAFGYSLIEFDTFVRHKIPVMALVGNDAGWTQISREQVPSLGSNVACGLAYTDYHKAAMGLGARGLLLSRENEDQVVKVLHDAQQQCRDGHPVVVNILIGRTDFRDGSIAV [ILVBL] | 0.852 | -0.0354 | 53.2 | 53.7 | -0.101 | -0.172
MARAMAAAWPLLLVALLVLSWPPPGTGDVVVQAPTQVPGFLGDSVTLPCYLQVPNMEVTHVSQLTWARHGESGSMAVFHQTQGPSYSESKRLEFVAARLGAELRNASLRMFGLRVEDEGNYTCLFVTFPQGSRSVDIWLRVLAKPQNTAEVQKVQLTGEPVPMARCVSTGGRPPAQITWHSDLGGMPNTSQVPGFLSGTVTVTSLWILVPSSQVDGKNVTCKVEHESFEKPQLLTVNLTVYYPPEVSISGYDNNWYLGQNEATLTCDARSNPEPTGYNWSTTMGPLPPFAVAQGAQLLIRPVDKPINTTLICNVTNALGARQAELTVQVKEGPPSEHSGISRNAIIFLVLGILVFLILLGIGIYFYWSKCSREVLWHCHLCPSSTEHASASANGHVSYSAVSRENSSSQDPQTEGTR [PVR] | -1.4 | -2.91 | 55 | 55 | 0.109 | 0.164
MAGSEQQRPRRRDDGDSDAAAAAAAPLQDAELALAGINMLLNNGFRESDQLFKQYRNHSPLMSFGASFVSFLNAMMTFEEEKMQLACDDLKTTEKLCESEEAGVIETIKNKIKKNVDVRKSAPSMVDRLQRQIIIADCQVYLAVLSFVKQELSAYIKGGWILRKAWKIYNKCYLDINALQELYQKKLTEESLTSDAANDNHIVAEGVSEESLNRLKGAVSFGYGLFHLCISMVPPNLLKIINLLGFPGDRLQGLSSLMYASESKDMKAPLATLALLWYHTVVRPFFALDGSDNKAGLDEAKEILLKKEAAYPNSSLFMFFKGRIQRLECQINSALTSFHTALELAVDQREIQHVCLYEIGWCSMIELNFKDAFDSFERLKNESRWSQCYYAYLTAVCQGATGDVDGAQIVFKEVQKLFKRKNNQIEQFSVKKAERFRKQTPTKALCVLASIEVLYLWKALPNCSFPNLQRMSQACHEVDDSSVVGLKYLLLGAIHKCLGNSEDAVQYFQRAVKDELCRQNNLYVQPYACYELGCLLLDKPETVGRGRALLLQAKEDFSGYDFENRLHVRIHAALASLRELVPQ [TTC39C] | -1.01 | -2.55 | 53.6 | 52.6 | -0.0737 | -0.00412
MEPTAPSLTEEDLTEVKKDALENLRVYLCEKIIAERHFDHLRAKKILSREDTEEISCRTSSRKRAGKLLDYLQENPKGLDTLVESIRREKTQNFLIQKITDEVLKLRNIKLEHLKGLKCSSCEPFPDGATNNLSRSNSDESNFSEKLRASTVMYHPEGESSTTPFFSTNSSLNLPVLEVGRTENTIFSSTTLPRPGDPGAPPLPPDLQLEEEGTCANSSEMFLPLRSRTVSRQ [BCL10] | -0.239 | -0.726 | 49.8 | 50.5 | 0.624 | 0.181
MGLQLRALLGAFGRWTLRLGPRPSCSPRMAGNAEPPPAGAACPQDRRSCSGRAGGDRVWEDGEHPAKKLKSGGDEERREKPPKRKIVLLMAYSGKGYHGMQRNVGSSQFKTIEDDLVSALVRSGCIPENHGEDMRKMSFQRCARTDKGVSAAGQVVSLKVWLIDDILEKINSHLPSHIRILGLKRVTGGFNSKNRCDARTYCYLLPTFAFAHKDRDVQDETYRLSAETLQQVNRLLACYKGTHNFHNFTSQKGPQDPSACRYILEMYCEEPFVREGLEFAVIRVKGQSFMMHQIRKMVGLVVAIVKGYAPESVLERSWGTEKVDVPKAPGLGLVLERVHFEKYNQRFGNDGLHEPLDWAQEEGKVAAFKEEHIYPTIIGTERDERSMAQWLSTLPIHNFSATALTAGGTGAKVPSPLEGSEGDGDTD [PUS1] | 1.9 | 6.23 | 46.8 | 48.7 | 0.281 | -0.119
MASQPPPPPKPWETRRIPGAGPGPGPGPTFQSADLGPTLMTRPGQPALTRVPPPILPRPSQQTGSSSVNTFRPAYSSFSSGYGAYGNSFYGGYSPYSYGYNGLGYNRLRVDDLPPSRFVQQAEESSRGAFQSIESIVHAFASVSMMMDATFSAVYNSFRAVLDVANHFSRLKIHFTKVFSAFALVRTIRYLYRRLQRMLGLRRGSENEDLWAESEGTVACLGAEDRAATSAKSWPIFLFFAVILGGPYLIWKLLSTHSDEVTDSINWASGEDDHVVARAEYDFAAVSEEEISFRAGDMLNLALKEQQPKVRGWLLASLDGQTTGLIPANYVKILGKRKGRKTVESSKVSKQQQSFTNPTLTKGATVADSLDEQEAAFESVFVETNKVPVAPDSIGKDGEKQDL [PEX13] | -2.51 | -2.78 | 53.5 | 53.4 | -0.182 | 0.116
MSSASVTAFEKEHLWMYLQALGFEPGPATIACGKIVSHTHLGVNMFDKLNRDAFHIISYFLFQVLDQSLTKEVFKFCWPPFDQKSDTEFRKHCCEWIKRISGECGSSFPQVVGSLFLSPGGPKFIHLMYHFARFVAMKYIKSNSKNSSHHFVETFNIKPQDLHKCIARCHFARSRFLQILQRQDCVTQKYQENAQLSVKQVRNLRSECIGLENQIKKMEPYDDHSNMEEKIQKVRSLWASVNETLMFLEKEREVVSSVLSLVNQYALDGTNVAINIPRLLLDKIEKQMFQLHIGNVYEAGKLNLLTVIQLLNEVLKVMKYERCQADQARLTVDLHYLEKETKFQKERLSDLKHMRYRIKDDLTTIRHSVVEKQGEWHKKWKEFLGLSPFSLIKGWTPSVDLLPPMSPLSFDPASEEVYAKSILCQYPASLPDAHKQHNQENGCRGDSDTLGALHDLANSPASFLSQSVSSSDRNSVTVLEKDTKMGTPKEKNEAISKKIPEFEVENSPLSDVAKNTESSAFGGSLPAKKSDPFQKEQDHLVEEVARAVLSDSPQLSEGKEIKLEELIDSLGSNPFLTRNQIPRTPENLITEIRSSWRKAIEMEENRTKEPIQMDAEHREVLPESLPVLHNQREFSMADFLLETTVSDFGQSHLTEEKVISDCECVPQKHVLTSHIDEPPTQNQSDLLNKKVICKQDLECLAFTKLSETSRMETFSPAVGNRIDVMGGSEEEFMKILDHLEVSCNKPSTNKTMLWNSFQISSGISSKSFKDNDFGILHETLPEEVGHLSFNSSSSSEANFKLEPNSPMHGGTLLEDVVGGRQTTPESDFNLQALRSRYEALKKSLSKKREESYLSNSQTPERHKPELSPTPQNVQTDDTLNFLDTCDLHTEHIKPSLRTSIGERKRSLSPLIKFSPVEQRLRTTIACSLGELPNLKEEDILNKSLDAKEPPSDLTR [HAUS6] | 0.745 | 1.14 | 48.3 | 49.1 | -0.0247 | -0.0199
MAAAGGGGGGAAAAGRAYSFKVVLLGEGCVGKTSLVLRYCENKFNDKHITTLQASFLTKKLNIGGKRVNLAIWDTAGQERFHALGPIYYRDSNGAILVYDITDEDSFQKVKNWVKELRKMLGNEICLCIVGNKIDLEKERHVSIQEAESYAESVGAKHYHTSAKQNKGIEELFLDLCKRMIETAQVDERAKGNGSSQPGTARRGVQIIDDEPQAQTSGGGCCSSG [RAB21] | -1.73 | -1.92 | 60.4 | 60.5 | 0.158 | -0.0826
MEDTPLVISKQKTEVVCGVPTQVVCTAFSSHILVVVTQFGKMGTLVSLEPSSVASDVSKPVLTTKVLLGQDEPLIHVFAKNLVAFVSQEAGNRAVLLAVAVKDKSMEGLKALREVIRVCQVW [PSMG3] | -1.46 | -2.93 | 57.8 | 56.2 | 0.13 | -0.0857
